Values of other authors as cited in patent publication US20230303640A1, “EXENDIN-4 PEPTIDE ANALOGS” (TXP Pharma AG, priority 2020, published 2023).

Target: T1, human GLP-1 receptor (Homo sapiens, UniProt P43220)
T1 construct: expressed in transfected cells; host or cells: CHO-K1
Conditions: FIG. 3; data included and detailed in PCT/IB2015/000553 (WO/2015/162485)

T1 sequence (P43220 24-463): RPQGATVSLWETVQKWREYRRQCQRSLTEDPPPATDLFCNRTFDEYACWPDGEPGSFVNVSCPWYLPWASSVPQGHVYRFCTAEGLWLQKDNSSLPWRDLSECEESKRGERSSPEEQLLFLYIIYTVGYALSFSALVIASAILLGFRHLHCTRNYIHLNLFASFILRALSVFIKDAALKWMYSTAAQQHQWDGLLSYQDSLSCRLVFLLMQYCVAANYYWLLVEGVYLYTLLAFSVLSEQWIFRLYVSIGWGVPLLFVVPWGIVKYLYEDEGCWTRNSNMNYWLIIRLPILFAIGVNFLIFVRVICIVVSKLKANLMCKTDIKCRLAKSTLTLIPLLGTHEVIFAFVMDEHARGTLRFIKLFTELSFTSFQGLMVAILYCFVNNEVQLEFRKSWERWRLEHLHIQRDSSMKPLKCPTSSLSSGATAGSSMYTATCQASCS

EC50: 0.04 nM
Substance: Ac-His-Gly-Glu-Gly-Thr-Phe-Thr-Ser-Asp-Val-Ser-Ser-Tyr-Leu-Glu-Gly-Gln-Ala-Ala-Lys-Glu-Phe-Ile-Ala-Trp-Leu-Val-Lys-Gly-Arg-Gly-(Lys-Lys-Ac)Lys-NH2 (HGEGTFTSDVSSYLEGQAAKEFIAWLVKGRG; N-acetyl; C-terminal (Lys-Lys-Ac)Lys amide; printed: His-Gly-Glu-Gly-Thr-Phe-Thr-Ser-Asp-Val-Ser-Ser-Tyr-Leu-Glu-Gly-Gln-Ala-Ala-Lys-Glu-Phe-Ile-Ala-Trp-Leu-Val-Lys-Gly-Arg-Gly-) [Analogue 3, GLP-1 analogue with C-terminal BAP, from WO/2015/162485]
